Test results: patent US8604172B2, “Humanized antibody compositions and methods for binding lysophosphatidic acid” (Lpath, Inc., priority 2009, dated 2013)

How the values were obtained:
[1] = Direct binding ELISA of anti-LPA mAbs to 18:1 LPA
Method: The binding of 6 anti-LPA mAbs (B3, B7, B58, A63, B3A6, D22) to 12:0 and 18:1 LPA (0.1 uM) was measured by ELISA. EC50 values were calculated from titration curves using 6 increasing concentrations of purified mAbs (0 to 0.4 ug/ml). EC50 represents the effective antibody concentration with 50% of the maximum binding. Max denotes the maximal binding (expressed as OD450).

[2] = Competition ELISA (18:1 LPA coat), competitor 14:0 LPA; conditions: maximum inhibition (% of binding in the absence of inhibitor)
Method: (§1) Many isoforms of LPA have been identified to be biologically active and it is preferable that the mAb recognize all of them to some extent to be of therapeutic relevance. The specificity of the anti-LPA mAbs was evaluated utilizing a competition assay in which the competitor lipid was added to the antibody-immobilized lipid mixture.
(§2) Competition ELISA assays were performed with the anti-LPA mAbs to assess their specificity. 18:1 LPA was captured on ELISA plates. Each competitor lipid (up to 10 uM) was serially diluted in BSA (1 mg/ml)-PBS and then incubated with the mAbs (3 nM). Mixtures were then transferred to LPA coated wells and the amount of bound antibody was measured with a secondary antibody. Data are normalized to maximum signal (A450) and are expressed as percent inhibition. Assays were performed in triplicate. IC50: Half maximum inhibition concentration; MI: Maximum inhibition (% of binding in the absence of inhibitor); - - -: not estimated because of weak inhibition. A high inhibition result indicates recognition of the competitor lipid by the antibody.

[3] = Competition ELISA (18:1 LPA coat), competitor 16:0 LPA; type: binding; conditions: maximum inhibition
Method: as §1, §2

[4] = Competition ELISA (18:1 LPA coat), competitor 18:2 LPA; type: binding; conditions: maximum inhibition
Method: as §1, §2

[5] = Competition ELISA specificity, competitor S1P; type: binding; conditions: maximum inhibition, n = 3
Method: (§3) The specificity of the anti-LPA mAbs was assessed for their binding to LPA related biolipids such as distearoyl-phosphatidic acid, lysophosphatidylcholine, S1P, ceramide and ceramide-1-phosphate.

[6] = Competition ELISA specificity, competitor C1P; type: binding; conditions: maximum inhibition, n = 3
Method: as §3

[7] = Competition ELISA specificity, competitor Cer; type: binding; conditions: maximum inhibition, n = 3
Method: as §3

[8] = Competition ELISA specificity, competitor DSPA; type: binding; conditions: maximum inhibition, n = 3
Method: as §3

[9] = Safety, 7 day intravenous injection; type: in vivo, C57BL/6N mice; conditions: for triglycerides / liver weights: mean±SD; for triglycerides: in mg/dL (unit assumed); for liver weights: in g (unit assumed)
From the text: Objective. This study assessed the safety of Lpathomab following intravenous injection of the antibody. C57BL/6N mice received Lpathomab (LT3000) for 7 consecutive days followed by a 7 day recovery period for selected animals of each treatment (recovery groups). Blood samples were collected and processed for multiple study parameters including classical hematology, coagulation time and clinical chemistry. Selected organs were weighed and compared with vehicle only controls.
Study design. Once a day, single iv bolus injections of Lpathomab or vehicle control were given at the following doses: 0, 30, 60, 120, and 240 mg/kg. […] For each animal, necropsy consisted of an external examination, including identification of all clinically recorded lesions, as well as a detailed internal examination.

[10] = tested on: angiogenesis in Caki-1-containing plugs; test: Matrigel Plug assay with Caki-1 cells, CD31 staining; type: in vivo, nude (NCr Nu/Nu) female mice; conditions: 10 mg/kg every 3 days; vs saline; p<0.05
Method: One of the anti-LPA mAbs (B7) was tested for its ability to mitigate angiogenesis in vivo using the Matrigel Plug assay. This assay utilizes Matrigel, a proprietary mixture of tumor remnants including basement membranes derived from murine tumors. When Matrigel, or its derivate growth factor-reduced (GFR) Matrigel, is injected sc into an animal, it solidifies and forms a ‘plug.’ If pro-angiogenic factors are mixed with the matrix prior to placement, the plug will be invaded by vascular endothelial cells which eventually form blood vessels. Matrigel can be prepared either alone or mixed with recombinant growth factors (bFGF, VEGF), or tumor cells and then injected sc in the flanks of 6-week old nude (NCr Nu/Nu) female mice. In this example, Caki-1 (renal carcinoma) cells were introduced inside the Matrigel and are producing sufficient levels of VEGF and/or IL8 and LPA. Matrigel plugs were prepared containing 5×10^5 Caki-1 cells from mice treated with saline or with 10 mg/kg of anti-LPA mAb-B7, every 3 days starting 1 day prior to Matrigel implantation. Plugs were stained for endothelial CD31, followed by quantitation of the micro-vasculature formed in the plugs. Quantitation data were means+/−SEM of at least 16 fields/section from 3 plugs.

[11] = 30-240 mg/kg iv daily x 7 vs control

- EC50 ([1]; 18:1 LPA 0.1 uM, mAb 0 to 0.4 ug/ml): 0.274 nM
- Max (OD450), 18:1 LPA ([1]; maximal binding): 0.973 OD450
B1: LT3000: Murine anti-LPA monoclonal antibody clone B7, IgG1k, renamed Lpathomab, also known as LT3000; hybridoma 504B7.1, ATCC PTA-8420 (antibody, V domains shown)
VH: QVQLQQSGAELVRPGTSVKVSCKASGYGFINYLIEWIKQRPGQGLEWIGLINPGSDYTNYNENFKGKATLTADKSSSTAYMHLSSLTSEDSAVYFCARRFGYYGSGNYFDYWGQGTTLTVSS
VL: DVVMTQTPLSLPVSLGDQASISCTSGQSLVHINGNTYLHWYLQKPGQSPKLLIYKVSNLFSGVPDRFSGSGSGTDFTLKISRVEAEDLGVYFCSQSTHFPFTFGTGTKLEIK
- MI, 14:0 LPA [2]: 61.3%
- MI, 16:0 LPA [3]: 62.9%
- MI, 18:2 LPA [4]: 100%
- MI (%), S1P [5]: 2.7%
- MI (%), C1P [6]: 1.0%
- MI (%), Cer [7]: 1%
- MI (%), DSPA [8]: 0%
- weights of brains, hearts, lungs, pituitary glands, ovaries, spleens, testes, thymus glands, thyroid or uterus ([9]; 30-240 mg/kg iv daily x 7): No changes were observed
- glucose, cholesterol, ALT or other CBC parameters [9, 11]: no statistically significant reductions
- hematology parameters [9, 11]: no significant differences
- triglycerides ([9]; female mice, 120 mg/kg iv daily x 7, vehicle 89±17): 36±8
- triglycerides ([9]; female mice, 240 mg/kg iv daily x 7, vehicle 89±17): 46±18
- liver weights ([9]; female mice, 240 mg/kg, vehicle 1.2±0.27): 0.89±0.26
- liver weights ([9]; male mice, 60 mg/kg, vehicle 1.28±0.06): 1.03±0.07
- liver weights ([9]; male mice, 120 mg/kg, vehicle 1.28±0.06): 1.08±0.11
- triglycerides ([9]; male mice, 240 mg/kg iv daily x 7, vehicle 133±24): 50±8
- liver weights ([9]; male mice, 240 mg/kg, vehicle 1.28±0.06): 1.11±0.11
- reduction in angiogenesis [10]: greater than 50%
